These results are taken from patent US20020081617A1, “Fluorescence and FRET based assays for biomolecules on beads” (priority 2000, published 2002).

“And” between values parts separate entries of the source, which are not always exact repeats. Equal values may be shown once.

The target of test [1] is streptavidin coated beads (Streptomyces avidinii, UniProt P22629). The experiment in a line: Binding of biotinylated ligands to streptavidin-coated beads (centrifugation assays). Particulars: read-out: binding affinity (Kd) to streptavidin coated beads. As to the method:
Binding analysis of biotinylated biomolecules to streptavidin-bearing beads were performed. Centrifugation assays using paired spectrofluorimetric and flow cytometric analysis were carried out to compare and corroborate the flow cytometric data against the traditional spectroflurometric measurements.
The flow cytometric analysis used a Becton-Dickinson FACScan flow cytometer obtained from Sunnyvale, Calif. that interfaced to a Power PC Macintosh using the CellQuest software package. The FACScan is equipped with a 15 mW air-cooled argon ion laser. The laser output is fixed at 488 nm. It has been shown that the mean of the histogram is the quantity relevant to binding capacity. The average fluorescence of a single bead is converted to the number of fluorophores per bead on the basis of flow cytometric calibration beads obtained from Quantum 825 Flow Cytometry Standards Corporation, San Juan, PR. […] [formula]
MCFLb mean channel fluorescence are the means of the histograms of the bound ligand Lb, corrected for nonspecific binding and standard calibration beads referred to as std, observed at similar detection settings. MESF stands for mean equivalent of soluble fluorophores and is the number of fluorescein molecules whose emission intensity is equal to MCFstd on each bead.
The magnitude of bound sites per bead were determined from centrifugation assays.

Test [2] concerns the target biotinylated and fluorescein-tagged 5-FLAG peptide on streptavidin-coated beads. The experiment in a line: affinity micro-column of fluorescein FLAG peptide beads, FRET endpoints, sigmoidal dose-response curve.
Test [3] has the same target. Kind of test: FRET quenching on 5-FLAG bearing beads, flow cytometry, calcium-free buffer, sigmoidal analysis.
The target of test [4] is non-biotinylated fluorescent 5-FLAG peptide (soluble). The experiment in a line: FRET titration of TR-M1 into fluorescent FLAG peptide in solution, spectrofluorimetry, 1 mM Ca2+.
Test [5] deals with biotinylated and fluorescein-tagged 5-FLAG peptide on streptavidin-coated beads. Kind of test: FRET quenching on 5-FLAG bearing beads, flow cytometry, buffer with Ca2+, sigmoidal analysis.
Test [6] shares this target. The experiment in a line: flow cytometry of bead-borne FLAG peptides incubated with TR-M1 mAbs, FRET quenching (FIG. 18).
For test [7] the target is unchanged. Kind of test: FRET quenching of 5-FLAG on beads by TR-M1 (FIG. 8).
The target is the same in test [8]. Kind of test: affinity micro-column of fluorescein FLAG peptide beads, real-time FRET, kinetic model fit.
Test [9] addresses non-biotinylated fluorescent 5-FLAG peptide (soluble). Kind of test: centrifugation assay, spectrofluorimetry of residual supernatants; soluble fluorescent FLAG peptide on M2-bearing beads.
Test [10] deals with Texas-Red labeled M1 anti-FLAG monoclonal antibody (IgG). The experiment in a line: competition: TR-M1 pre-equilibrated with thousand-fold excess soluble non-fluorescent FLAG peptide, then passed over bead-borne fluorescein FLAG peptide; FRET.
The target in test [11] is fluorescein biotin-bearing beads (Streptomyces avidinii, UniProt P22629). The experiment in a line: Detection of native biotin via fluorescence unquenching of fluorescein biotin in affinity micro-column. The note with it: 2 μL aliquot of 3 mM native biotin. In kind it is binding. From the text:
Streptavidin coated beads bearing ≈1×10^6 fluorophores/bead were packed into the micro-channel.
(§1) Ostrich quenching is dependent on the length and structure of the ligand. […] Addition of native biotin recovers the original intensity under diffusion-limited kinetics. The extent of quenching and recovery on beads depends on site occupancy of the fluorescein biotin. […] The five-fold increase in intensity was consistent with a result from a flow cytometry measurement (data not shown). […] The magnitude of n2 relative to n1 is likely due to the disruption of the packing of beads upon initial contact with the plug of sample. It is likely that such disruption can be minimized through optimization of bead packing and sample injection procedures.

The target in test [12] is streptavidin (Streptomyces avidinii, UniProt P22629). Kind of test: Ostrich quenching of fluorescein biotin bound to streptavidin. The test is classed as binding. The note with it: bound to excess soluble streptavidin.
Sequence of streptavidin (P22629 25-183): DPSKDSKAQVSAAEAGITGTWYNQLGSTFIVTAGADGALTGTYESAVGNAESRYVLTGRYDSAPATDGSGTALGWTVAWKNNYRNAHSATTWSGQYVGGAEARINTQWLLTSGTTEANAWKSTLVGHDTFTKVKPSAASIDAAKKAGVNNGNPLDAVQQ
From the text: Under certain circumstances, binding of fluorescent ligands to streptavidin is characterized by the quenching of fluorescence of bound relative to free ligands. Typically, this type of quenching referred to as “ostrich quenching” occurs when the fluorophore (e.g., fluorescein) moiety of a biotinylated ligand associates with the receptor pocket adjacent to the biotin-moiety bearing site. Such a method is described in the following reference: Buranda, T., Jones, G., Nolan, J., Keij, J., Lopez, G. P., and Sklar, L. A. (1999) Ligand Receptor Dynamics at Streptavidin Coated Particle Surfaces: A Flow Cytometric and Spectrofluorimetic Study J. Phys. Chem. B. 103, 3399-3410, the entire contents and disclosure of which is hereby incorporated by reference.
as §1

The target in test [13] is streptavidin on 6.2 µm streptavidin-coated beads (UniProt P22629). The experiment in a line: centrifugation assay with spectrofluorimetry and flow cytometry; biotinylated peptide on streptavidin-coated beads (binding through biotin).
Sequence of streptavidin on 6.2 µm streptavidin-coated beads (P22629 37-163 limits assumed): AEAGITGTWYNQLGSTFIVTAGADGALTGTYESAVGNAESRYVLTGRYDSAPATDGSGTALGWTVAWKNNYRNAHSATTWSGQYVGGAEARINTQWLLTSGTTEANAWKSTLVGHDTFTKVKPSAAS

Sequence of streptavidin coated beads (P22629 25-183): as the sequence (P22629 25-183) above
Sequence of fluorescein biotin-bearing beads (P22629 25-183): as above

In the case of “Biotinylated and fluorescein-tagged FLAG peptide (epitope DYKDDDDK) tethered to streptavidin-coated beads [5-FLAG]”, in test [1], the Kd is 0.3 nM and ~0.3 nM.
For the molecule “Texas-Red labeled M1 anti-FLAG monoclonal antibody (IgG)”, the Kd in test [2] turned out to be 10 nM; in test [3] it was 37 nM; in test [4], 9 nM; in test [5] it was 4 nM; in [6], 4 nM; in test [8], 13.3 nM. In addition, the quenching of peptide fluorescence at saturation in test [7] was over 60%. The molecule further had a koff in test [8] of 0.0012 s⁻¹. In test [8], this molecule showed a kon of 90000 M⁻¹ s⁻¹.
For “biotinylated anti-FLAG M2 IgG on streptavidin-coated beads (antibody)”, the Kd in test [9] was 8 nM.
Molecule “dark non-fluorescent FLAG peptide (soluble)” gave an FRET signal remaining with thousand fold excess of soluble peptide in test [10] of under 10%.
For the molecule `O=C(O)CCCC[C@@H]1SC[C@@H]2NC(=O)N[C@@H]21` [native biotin, biotin], the “increase in intensity of fluorescein biotin-bearing beads” value in [11] is “fivefold”.
Turning to `O=C(CCCCCNC(=O)CCCC[C@@H]1SC[C@@H]2NC(=O)N[C@@H]21)NCCCCCNC(=S)Nc1ccc2c(c1)C(=O)OC21c2ccc(O)cc2Oc2cc(O)ccc21` [fluorescein biotin], in test [1], the Kd was about 0.5 nM. In addition, the “quenching of the fluorescence” value in test [12] is given as over 90%.
In the case of “biotinylated and fluorescein-tagged 5-FLAG peptide on streptavidin-coated beads”, in test [13], the Kd worked out at 0.3 nM.
